Literature values in JP2018508186A, “Il−17a結合ポリペプチド” (アフィボディ アクティエボラーグ, priority 2015, dated 2016).

Legend:
IL-17A [1] = target: T1, IL-17A (Homo sapiens, UniProt Q16552); conditions: from WO2006/013107, WO2012/125680, WO2007/070750; read-out: KD for IL-17A, reported
IL-17A [2] = target: T1, IL-17A; conditions: from WO2006/013107 and WO2012/125680; read-out: IC50, hIL-6 production neutralising activity, reported

T1 sequence (Q16552 24-155): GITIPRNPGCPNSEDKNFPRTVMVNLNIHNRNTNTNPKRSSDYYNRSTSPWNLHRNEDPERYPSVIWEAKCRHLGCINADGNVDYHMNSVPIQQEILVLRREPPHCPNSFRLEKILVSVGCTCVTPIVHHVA

Kd (IL-17A [1])	IC50 (IL-17A [2])	Substance
0.002 nM	–	イキセキズマブ: anti-IL-17A monoclonal antibody
0.122 nM	2.1 ± 0.1 nM	セクキヌマブ: anti-IL-17A monoclonal antibody
